Source: US20180177810A1 (UNIVERSITY OF NOTRE DAME DU LAC, published 2018)
Where no end group is shown, it is not given here.

Target: T1, Very late antigen-4 (VLA-4; α4β1 integrin) on multiple myeloma cell lines (human, UniProt P13612 34-1032; P05556 21-798)
T1 construct: whole, on cells; also called VLA-4 receptor
Assay: peptide screen of Example 1 (FITC-labeled peptides on MM cells, flow cytometry)

T1 sequence (P13612 34-1032, chain 1 of 2): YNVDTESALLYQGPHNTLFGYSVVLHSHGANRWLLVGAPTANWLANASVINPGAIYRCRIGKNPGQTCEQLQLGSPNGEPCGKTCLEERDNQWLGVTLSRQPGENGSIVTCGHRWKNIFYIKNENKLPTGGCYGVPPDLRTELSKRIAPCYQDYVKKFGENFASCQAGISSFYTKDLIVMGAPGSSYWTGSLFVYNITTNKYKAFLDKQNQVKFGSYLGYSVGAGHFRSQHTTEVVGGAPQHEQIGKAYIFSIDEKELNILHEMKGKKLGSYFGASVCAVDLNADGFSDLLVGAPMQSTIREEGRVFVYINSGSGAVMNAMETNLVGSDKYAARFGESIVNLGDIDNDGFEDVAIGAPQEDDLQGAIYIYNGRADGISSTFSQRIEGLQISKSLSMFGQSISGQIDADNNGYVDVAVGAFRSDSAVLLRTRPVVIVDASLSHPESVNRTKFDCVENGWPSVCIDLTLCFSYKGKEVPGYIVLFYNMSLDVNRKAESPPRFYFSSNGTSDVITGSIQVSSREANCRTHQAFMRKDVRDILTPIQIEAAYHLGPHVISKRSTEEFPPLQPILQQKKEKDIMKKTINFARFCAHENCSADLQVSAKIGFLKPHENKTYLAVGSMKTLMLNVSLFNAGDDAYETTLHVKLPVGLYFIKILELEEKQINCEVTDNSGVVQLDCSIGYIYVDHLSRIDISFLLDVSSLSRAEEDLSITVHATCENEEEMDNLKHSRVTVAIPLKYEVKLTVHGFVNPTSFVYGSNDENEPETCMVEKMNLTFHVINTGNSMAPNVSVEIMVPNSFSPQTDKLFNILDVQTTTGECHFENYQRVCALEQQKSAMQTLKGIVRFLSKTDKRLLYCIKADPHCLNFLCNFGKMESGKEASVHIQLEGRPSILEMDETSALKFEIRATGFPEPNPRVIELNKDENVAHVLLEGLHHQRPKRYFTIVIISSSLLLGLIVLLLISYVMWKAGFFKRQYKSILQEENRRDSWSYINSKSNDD
T1 sequence (P05556 21-798, chain 2 of 2): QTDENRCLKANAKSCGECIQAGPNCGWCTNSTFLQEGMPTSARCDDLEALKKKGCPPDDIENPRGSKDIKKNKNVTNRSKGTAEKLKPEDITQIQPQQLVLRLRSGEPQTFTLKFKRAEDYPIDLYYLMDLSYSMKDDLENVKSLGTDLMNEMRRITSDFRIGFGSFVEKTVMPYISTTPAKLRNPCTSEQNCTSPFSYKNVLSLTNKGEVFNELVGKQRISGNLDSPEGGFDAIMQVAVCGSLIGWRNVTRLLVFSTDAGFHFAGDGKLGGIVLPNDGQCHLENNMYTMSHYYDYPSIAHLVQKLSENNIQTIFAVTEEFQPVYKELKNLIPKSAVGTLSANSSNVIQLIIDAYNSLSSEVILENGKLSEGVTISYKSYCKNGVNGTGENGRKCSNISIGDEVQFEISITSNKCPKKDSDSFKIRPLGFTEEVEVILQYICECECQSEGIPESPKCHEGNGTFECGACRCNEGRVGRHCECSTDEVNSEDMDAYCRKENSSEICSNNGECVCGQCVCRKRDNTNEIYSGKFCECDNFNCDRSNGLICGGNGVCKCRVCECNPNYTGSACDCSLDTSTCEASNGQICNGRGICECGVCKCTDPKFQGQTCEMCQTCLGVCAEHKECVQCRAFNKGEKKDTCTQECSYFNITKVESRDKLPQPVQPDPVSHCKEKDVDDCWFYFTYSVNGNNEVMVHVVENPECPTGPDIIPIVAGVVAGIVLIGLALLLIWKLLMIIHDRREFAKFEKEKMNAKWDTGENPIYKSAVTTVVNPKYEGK

B1: peptide sequence CFLDFP (peptide)
peptide: CFLDFP
modifications: not fully specified (C-terminus); also: FITC-labelled version synthesized for binding assays
notes: The assay for this peptide is not described separately
Q: Does B1 bind?
A: binds
